Measurements taken from the DeepSol protein solubility set.

Assay: soluble on expression in E. coli; label from the status in PepcDB or PDB records

Sequence | soluble on expression in E. coli
MSSKIFCKSWGAEYIAADVVRFRLWATGQQKVMLRLAGKDQEMQANGDGWFTLDVAGVTPGTEYNFVLSDGMVVPDPASRAQKTDVNGPSYVVDPGSYTWRNTGWKGSRWEQAVVYEMHTGTFTPEGTFRAAIAKLPYLAELGVTVIEVMPVAQFGGERGWGYDGVLLYAPHSAYGTPDDFKAFIDAAHGYGLSVVLDIVLNHFGPEGNYLPLLAPAFFHKERMTPWGNGIAYDVDAVRRYIIEAPLYWLTEYHLDGLRFDAIDQIEDSSARHVLVEIAQRIREDITDRPIHLTTEDSRNIISLHPRDQDGNAPLFTAEWNDDFHNAVHVFATGETQAYYNDFADAPEKHLARALAEGFAYQGEISPQTGEPRGVKSTGQPPVAFVDFIQNHDQVGNRAQGDRLITLAGAERTKVLLATLLLSPHIPLLFMGEEYGESRPFLFFTDFHGDLARAVREGRAKEFADHAGENVPDPNAPETFQRSKLNWKQQHSEEGKAWLAFTRELLLLRQKHIVPLLSAARESSGTVLQTAPGFIAVSWRFPGGTLSLALNISATTVLLPDLPGKTLFAWPNESTGSLSQHSLIVRLAQGESAS | not soluble
MSSLKGKRIGFGLTGSHCTYEAVFPQIEELVNEGAEVRPVVTFNVKSTNTRFGEGAEWVKKIEDLTGYEAIDSIVKAEPLGPKLPLDCMVIAPLTGNSMSKLANAMTDSPVLMAAKATIRNNRPVVLGISTNDALGLNGTNLMRLMSTKNIFFIPFGQDDPFKKPNSMVAKMDLLPQTIEKALMHQQLQPILVENYQGNDLEHHHHHH | not soluble
MSSPKISIIIPVYMAESYLHRCVDSIITQTFTDWELLLVDDGSPDHSGELCEKYASAYKSRIKAFHKPNGGVASAREFGMQQARGEYSIHVDPDDWIDSNTLEELYQQAVKEQADMVICDFMMEYPNRQIHNCQKPQLLDSSSFMHQLLQQERHGSLCNKLIRTELYHKYQLHFPEKMICWEDLYICCSILLHGCKLAYVPHALYHYDFYTNDNSMVRHTDMRGLQAQIDFCRLMQAKISPEYLPELNELKGITLITAFRNQLLNEQAIRSLFPEINDWYVTRYGHDYEKSNYYGLTLVLRGYNFKTARRRMFVAKFLVQIKNKITRML | not soluble
MSSPPPARSGFYRQEVTKTAWEVRAVYRDLQPVGSGAYGAVCSAVDGRTGAKVAIKKLYRPFQSELFAKRAYRELRLLKHMRHENVIGLLDVFTPDETLDDFTDFYLVMPFMGTDLGKLMKHEKLGEDRIQFLVYQMLKGLRYIHAAGIIHRDLKPGNLAVNEDCELKILDFGLARQADSEMTGYVVTRWYRAPEVILNWMRYTQTVDIWSVGCIMAEMITGKTLFKGSDHLDQLKEIMKVTGTPPAEFVQRLQSDEAKNYMKGLPELEKKDFASILTNASPLAVNLLEKMLVLDAEQRVTAGEALAHPYFESLHDTEDEPQVQKYDDSFDDVDRTLDEWKRVTYKEVLSFKPPRQLGARVSKETPL | soluble
MSSQLNHGTLPKISIVTPSYNQAQYLEATMRSILDQGYPDLEYIVMDGGSTDGSTEIIQKYSDRLTYWESAPDKGQADAIFRGFERATGEIFCYVNSDDLLLPGSLEMVGRWFREHPDEEWVVGGTILIDGLGIPIIRSRRGLPEADLGVKVTFKRLLLHNCGGFHQPASFWRRSAFEQAGGFDRTLRFCFDYDLFFRLAKRRPSGRIRSFLAAFRYHPASKTSTLESVFREENETLWRRYGRYLYSENQIRNFAHKQTTRDMWNNRIIKLGFYLKILNVSNAIGSLEHHHHHH | not soluble
MSSSDTFEKLYIEQHDAPSEEQVEEWLATGEVLKLEQIVLDGRGHMLREKKTVNASSNEFLSGLTQYLTKIDAIHKAVEEGDVRRVKSLIDRPLLSTARDNYGMTPIHKALLHGQTNTVRFLLGRFPSCVNATDHRIFGILVDSVSNGVFNKSPLKKNAGRTPLHYAAADPNGEHMIKVLQKSGGDAFIEDKHGHTPFYYRTHGQRLNVRSMKDNAVMNQLISGQLSRPLLQDLEEDIYDWIHTGNIGKLEELVLTGYADLLLGRNHEVDDADSIGFLEVLPQYQAKIQSIHKAVETGNLRAVKLLTDRKKLSLCRDTRGLSPLHKAIVFERTDIAKYLIRNYPQSVNAMDQKKRTPLHYAAALKDGGYLYKVMRKSGADPNIYDCNGRPAKYYLKHTGEIDLSAMRLDTRAALKQVLHNRVAPSYLESSIQQWLRDGQLAKLEQLVLSGCGDLLQSRTSTHTETQAFLDRLPDYMDKIDGIHKSIKEGNLDKVKELMKTKKLAIARDRFGCTPLHSAVVHEHTEIVRYIAGHYNSVLNAPDYNKRTAMHYAAAARDGGHYLKILGKAGADPMAVDNEGRTPDYYRRNAVIDLKLIKDRDEDFETINEEYLEDGPLIDSPATPDSGSEGSFIDSARMLDDEDESIERHRFEKAFRGKIDLPTSENGVYLARTVAPVLTKALAEVLLRRPADPIGFIAEWLSKYVVEIPRHNGSH | not soluble
MSSSQELRSNFYREKNLMETVFDALKAMGKATSIELAARLDISREEVLNELWELKKAGFVDKSAYTWRVADNNVQQEQPAQAELPEEITTATVAKISECDLTATIEQRGPQTADELATLFGTTSRKVASTLAMAISKGRLIRVNQGGKFRYCIPGDNLPAEPKAASVSPLWLSASSSACHGVLIITVITPSPTKNSATKMPENLEHHHHHH | not soluble
MSSSRNFDLEYDDYKERRNAAGMGSRASSRNGGRFKPIDKEKEKEKKEIGDYGLPKNEYKMQGYDERSSDVGADPLASVRTLRNNLRVMSLEHRDKDEPVKSHLCQSACDDLSKAEKQLVDLSHKRSDAVVRGDSRQAEQIAKDMDRVKSDAIRNAYSDLMMEDGTMKAFGVNSKWTPDKNPMPSDDWKPMTPMKPRKRAETPKGRKTESRQSNRGNNDNGDQRMTSKATTRSPERRVIPTEPSKPKTTRKNQRLSTIGHVPEAIPVVDTPLPGGSTVQDDPYKMPTYVGRCPHCQLTESGLGRAGGMEKHFAKYCKVMTSCKYCMKLTMVSQLTDHLIYRCEFLQDTMEACNDCGLAIEKEDQKRGGSHPMCRGRRPPTGAQWCPLCTIAVEDNEENWREHLLNNCYNNQRRDGPEKDPWEMKQEQEDILLGAKEKKKREMEEEERLKKEAEIRRQQQQVVVNNTGYPGKMIDADKLVVALQEIQERKKAEKKKKLKDIEKET | not soluble
MSSTAEEMAAAFEQTGGPDLTTGSGKRTKSDRVEHKHASQPGGDTRKVVQTASNGEAKRKEK | not soluble
MSSTPSLSHSPAELYRAWQDLRAERPQLRARDAAALLQVSEGELVASRVGIDAVRLRPDWAALLPALGELGPIMALTRNEHCVHERKGPYREVTVSANGQMGLVVSPDIDLRLFLGGWNAVFAIAEETARGTQRSIQVFDQQGVAVHKVFLAEASDVRAWEPLVERLRAAEQDAVLALHEPRAPAAALVDAQIDAAALREGWAALKDTHHFHALLKKHGAQRTQALRLAGGEWAERLDNGDLAKLFEAAAESGLPIMVFVGNAHCIQIHTGPVCNLKWLDDWFNVLDPEFNLHLKTTGIAELWRVRKPSTDGIVTSWEAFDADGELIVQLFGARKPGEPERDDWRELAESFKAL | not soluble
MSSVERYLSQLVKTEPQLETLKELYIGKKWHQLTEELLKLIHSGQVNRINLVELYDSFIREFESSLNPLALVRILVGIARKNYRDLNKALEFVDYATNSKAFISADEEASLFLKSETARLKLEGGNLSGVKQILEEVGVAMESTRDLDTVVHSSYHRVCAQYYKAVGPATKYYSSALLFFQYAPLDSFTVEERVHWAYDLGVASIVAETIFNFGEILEYDIMQSLKSEKLQWLLELLEAFKYGSIEKFNQIGNRARDQINQEPALSSNWQFLEQKIRLRSLMELATKKLVERVISFDDICSSCEVTKDQVEYLVMKALSLHLLQGTINEMDETVSISYVQPKTLDRNEVEGLYNRLIPWKTHVHEIALSLERSTEADLAQAQN | soluble
MSSVGDFEEIILHDLKPYYHVPGAIHSEGITFVKETGTLLWVDIFKGEVHKVEDIEQPESSHSFFSISRANYGKNASIEYPPNPDELKESVGCIFPILDGASQNEIKQVLFGSKFGIGKLDFSKSEWEYVILYSECPELSTDRAYKLRSNDGNVSPDGKYIYVGLMSDFPFDLEPIGCLLRVDLLAHKIELVWNCLLIPNAIHWDESDQKTMYVTDSLNFTIWKCPGGDLLKRDELIDVKNSNNQSFESPEPDGSAIWFSKDGKHSGFLFITVWSTSKVQMFDLTNGKLLKEFILPEQTPRVSCCCFVGKDLFVTTANAEINDAVRTNTDKNGGCIYKIPNVLDGNVPLESTKRQPLH | soluble
MSSVYTMKRIWLQKDKKAYQAWRELMEKAELQTTEALDYTVGIYDDTALIASGSLSGKTIKCVAVCKKYQSENLLTQLVVHLLEKLREENQLHSFLYTKPKNEQIFQSLGFQKVVANQEVLFMEQGKPDFADYLGYLTQHKKAGPASSIVMNANPFTKGHQYLVEKAAQESPHVYVFVLSEDKSLFSKEARFAMVQKGVAHLPNVTVLSTEDYLVSSATFPTYFLKEKAPLEVAAIQATLDATLFKERIAPILEIQQRYVGEEPYSEVTAVYNQAMQQVFGQTITLTIVPRLASDGELISATKVRKAMAEGDKETLKKFLPATSYQYLVEHKKLMR | not soluble
MSTDVAAAQAQSKIDLTKKKNEEINKKSLEEDDEFEDFPIDTWANGETIKSNAVTQTNIWEENWDDVEVDDDFTNELKAELDRYKRENQ | soluble
MSTFFQQTAQAMIAKHIDRFPLLKLDQVIDWQPIEQYLNRQKTRYLRDHRGRPACPLLSMFKAVLLGQWHNLSDPELEHSLITRIDFNLFCRFDELSIPDYSTLCRYRNRLAQDDTLSELLELINRQLTEKGLKVEKASAAVVDATIIQTVGSKQRQAIEVDEEGQVSGQTTLSKDKNARWTKKNSLYKLGYKQHTRTDAEGYIEKLHITPANAHECKHLSPLLEGLPEGTTIYADKGYDSAENRQHLEEHQLQDGIMRKACRNRPLTETQTKRNRYLSKTRYVVEQSFGTLHRKFRYARAAYFGLICARCRLKGSPDA | not soluble
MSTFFRQTAQAMIAKHINRFPLLKLDQVIDWQPIEQYLNRQKTRYLRDHRGRPAYPLLSMFKAVLLGQWHSLSDPELEHSLITRIDFNLFCRFDELSIPDYSTLCRYRNWLAQDDTLSELLELINCQLTEKGLKVEKASAAVIDATIIQTAGSEQRQAIEVDEEGQISGQTTPSKDSDARWIKKNGLYKLGYKQHTRTDAEGYIEKLHITPANAHECKHLSPLLEGLPEGTTVYADKGYDSAENRQHLEEHQLLDGIMSKACRNRPLSEVQTKRNRYLSKTRYSGLNLNQDKATKPQTVQIVRQGEATPYWFKFNPLYVVEQSFGTLHRKFRYARAAYFGLIKVSAQSHLKAMCLNLLKAANRLSAPAAA | not soluble
MSTKPEKPIWMSQEDYDRQYGSITGDESSTVSKKDSKVTANAPGDGNGSLPVLQSSSILTSKVSDLPIEAESGFKIQKRRHERYDQEERLRKQRAQKLREEQLKRHEIEMTANRSINVDQIVREHYNERTIIANRAKRNLSPIIKLRNFNNAIKYMLIDKYTKPGDVVLELGCGKGGDLRKYGAAGISQFIGIDISNASIQEAHKRYRSMRNLDYQVVLITGDCFGESLGVAVEPFPDCRFPCDIVSTQFCLHYAFETEEKARRALLNVAKSLKIGGHFFGTIPDSEFIRYKLNKFPKEVEKPSWGNSIYKVTFENNSYQKNDYEFTSPYGQMYTYWLEDAIDNVPEYVVPFETLRSLADEYGLELVSQMPFNKFFVQEIPKWIERFSPKMREGLQRSDGRYGVEGDEKEAASYFYTMFAFRKVKQYIEPESVKPN | soluble
MSTNEAAASQEDIALAQGAVLVKSCQVPDGSIPIRGFDFSTASGPDFSLSAILSSYMSTGFQATHLAQAIQQVNQMLSLRDTPLTCDDDEKLFPYPEGRQKRSCTIFLGYTSNLVTSGLREVLRYCVQRNLVDCIVTSAGGIEEDLIKCLKPSYLGTFTMDGAKLRSNGMNRAGNVLIPNDNYCAFEDWLMPILDECLVEQEEKHLNWTPSKLIQRLGERIGDESSILYWAAKHRIPVFCPALTDGSLGDMLYFHSVKSSPGLRVDIVEDVRHINTIAVKSFKTGSIILGGGVVKHHINNANLMRNGADHTVYINTGQEFDGSDSGAQPDEAVSWGKVKPSAGAVKVHAEATLVFPLLVAETFAKHEGHKD | not soluble
